Holding throughout (experiment): cell-based or functional assay
Test [1] has as its target T1, human CCR8 (human, UniProt P51685 1-355).
Test [2] addresses T1, human CCR8. The source holds these as a separate data set.
The target of test [3] is T1, human CCR8. This is another data set of the same source.
Test [4] addresses human CCR8 (human, UniProt P51685 1-355). This is another data set of the same source.
The target of test [5] is T1, human CCR8. The source holds these as a separate data set.
Test [6] addresses T1, human CCR8. This is another data set of the same source.
Test [7] concerns the target human CCR8 (P51685_CCR8_HUMAN) (human, UniProt P51685 1-355).

B1: TPP-20950 (18206-gl-42-hIgG1wt-Lambda), afucosylated (antibody, V domains shown)
VH: EVQLLESGGGLVQPGGSLRLSCAASGFTFSSYGMHWVRQAPGKGLEWVSAIKWGGGSHGYADSVKGRFTISRDNSKNTLYLQMNSLRAEDTAVYYCARGHHSGKDGRFFDYWGQGTLVTVSS
VL: QSVLTQPPSVSGAPGQRVTISCTGSSSNIGAGYNVHWYQQLPGTAPKLLIYTNNRRPSGVPDRFSGSKSGTSASLAISGLRSEDEADYYCAAWDASLSGWVFGGGTKLTVLG
modifications: afucosylated (no fucose on the N-glycan at N297)
For the molecule B1, in the test with human CCR8 [1], the “ADCP EC50 (pM); activated human Tregs donor 1212 + M2c donor 3” value is 23 pM and the “ADCP Max Response (%); activated human Tregs donor 1212 + M2c donor 3” value was determined as 14%. In addition, in the test with human CCR8 [2], the “ADCP EC50 (pM); activated human Tregs donor 1212 + M2c macrophages” value stood at 128 pM and the “ADCP Max Response (%); activated human Tregs donor 1212 + M2c macrophages” value came to 32%. In the test with human CCR8 [3], the “ADCP EC50 (pM); activated human Tregs donor 1212 + M2c donor 4” value is 10.7 pM and the “ADCP Max Response (%); activated human Tregs donor 1212 + M2c donor 4” value was 24%.

B2: TPP-20950, afucosylated (antibody, human IgG1, lambda, V domains shown)
VH: EVQLLESGGGLVQPGGSLRLSCAASGFTFSSYGMHWVRQAPGKGLEWVSAIKWGGGSHGYADSVKGRFTISRDNSKNTLYLQMNSLRAEDTAVYYCARGHHSGKDGRFFDYWGQGTLVTVSS
VL: QSVLTQPPSVSGAPGQRVTISCTGSSSNIGAGYNVHWYQQLPGTAPKLLIYTNNRRPSGVPDRFSGSKSGTSASLAISGLRSEDEADYYCAAWDASLSGWVFGGGTKLTVLG
modifications: afucosylated (no fucose on the N-glycan at N297)
B2: in the test with human CCR8 [4], the “ADCC Max Response (%); activated human Tregs (Donor 1100) as target cells, NK92v effector cells” value is 97% and the “ADCC hTreg EC50 (pM); activated human Tregs (Donor 1100) as target cells, NK92v effector cells” value amounted to 9.51 pM.

B3: TPP-20965 (18206-gl-58-hIgG1wt-Lambda), afucosylated (antibody, V domains shown)
VH: EVQLLESGGGLVQPGGSLRLSCAASGFTFSSYGMHWVRQAPGKGLEWVSAIKWGGGSTGYADSVKGRFTISRDNSKNTLYLQMNSLRAEDTAVYYCARGHHSGKDGRFFDYWGQGTLVTVSS
VL: QSVLTQPPSVSGAPGQRVTISCTGSSSNIGAGYNVHWYQQLPGTAPKLLIYTNNRRPSGVPDRFSGSKSGTSASLAISGLRSEDEADYYCAAWDASLSGWVFGGGTKLTVLG
modifications: afucosylated (no fucose on the N-glycan at N297)
Consider B3, for which, in the test with human CCR8 [5], the “ADCP EC50 (pM); activated human Tregs donor 1163 + M2c donor 2” value is 300 pM and the “ADCP Max Response (%); activated human Tregs donor 1163 + M2c donor 2” value was determined as 36%. In the test with human CCR8 [1], the “ADCP EC50 (pM); activated human Tregs donor 1212 + M2c donor 3” value came out at 163 pM and the “ADCP Max Response (%); activated human Tregs donor 1212 + M2c donor 3” value was 14%. In addition, in the test with human CCR8 [6], the “ADCP EC50 (pM); activated human Tregs donor 1163 + M2c donor 1” value came out at 766 pM and the “ADCP Max Response (%); activated human Tregs donor 1163 + M2c donor 1” value was 44%. In the test with human CCR8 [3], the “ADCP EC50 (pM); activated human Tregs donor 1212 + M2c donor 4” value came out at 563 pM and the “ADCP Max Response (%); activated human Tregs donor 1212 + M2c donor 4” value was 23%.

B4: TPP-20955 (18206-gl-47-hIgG1wt-Lambda), afucosylated (antibody, V domains shown)
VH: EVQLLESGGGLVQPGGSLRLSCAASGFTFSSYGMHWVRQAPGKGLEWVSAIKWGGGSHGYADSVKGRFTISRDNSKNTLYLQMNSLRAEDTAVYYCARGHHKGYDGRFFDYWGQGTLVTVSS
VL: QSVLTQPPSVSGAPGQRVTISCTGSSSNIGAGYNVHWYQQLPGTAPKLLIYTNNRRPSGVPDRFSGSKSGTSASLAISGLRSEDEADYYCAAWDASLSGWVFGGGTKLTVLG
modifications: afucosylated (no fucose on the N-glycan at N297)
Turning to B4, in the test with human CCR8 [1], the “ADCP EC50 (pM); activated human Tregs donor 1212 + M2c donor 3” value was found to be 14 pM and the “ADCP Max Response (%); activated human Tregs donor 1212 + M2c donor 3” value is 13%. Besides, in the test with human CCR8 [2], the “ADCP EC50 (pM); activated human Tregs donor 1212 + M2c macrophages” value stood at 408 pM and the “ADCP Max Response (%); activated human Tregs donor 1212 + M2c macrophages” value came to 29%. Moreover, in the test with human CCR8 [3], the “ADCP EC50 (pM); activated human Tregs donor 1212 + M2c donor 4” value amounted to 13.2 pM and the “ADCP Max Response (%); activated human Tregs donor 1212 + M2c donor 4” value stood at 23%.

B5: TPP-20955, afucosylated (antibody, human IgG1, lambda, V domains shown)
VH: EVQLLESGGGLVQPGGSLRLSCAASGFTFSSYGMHWVRQAPGKGLEWVSAIKWGGGSHGYADSVKGRFTISRDNSKNTLYLQMNSLRAEDTAVYYCARGHHKGYDGRFFDYWGQGTLVTVSS
VL: QSVLTQPPSVSGAPGQRVTISCTGSSSNIGAGYNVHWYQQLPGTAPKLLIYTNNRRPSGVPDRFSGSKSGTSASLAISGLRSEDEADYYCAAWDASLSGWVFGGGTKLTVLG
modifications: afucosylated (no fucose on the N-glycan at N297)
On to B5, for which, in the test with human CCR8 [4], the “ADCC Max Response (%); activated human Tregs (Donor 1100) as target cells, NK92v effector cells” value was 91% and the “ADCC hTreg EC50 (pM); activated human Tregs (Donor 1100) as target cells, NK92v effector cells” value came to 5.82 pM.

B6: TPP-18205 (004-F10_497A-M296-L12+497A-M326-O09-hIgG1Lambda), WT (antibody, V domains shown)
VH: EVQLLESGGGLVQPGGSLRLSCAASGFTFSSYAMSWVRQAPGKGLEWVSGIRWNSGSKGYAGSVKGRFTISRDNSKNTLYLQMNSLRAEDTAVYYCVRSGNYYVGYHGMDVWGQGTLVTVSS
VL: QSVLTQPPSASGTPGQRVTISCSGGNSNIGTYFVSWYQQLPGTAPKLLIYTNNQRPSGVPDRFSGSKSGTSASLAISGLRSEDEADYYCETWDSNTRVFGGGTKLTVLG
As to B6, in test [7], the “ADCC EC50, activated Tregs + NK92v, Donor 1213” value is ~0.00558 nM; the “ADCC EC50, activated Tregs + NK92v, Donor 1730” value was ~0.018 nM; the “ADCC Max Response, activated Tregs + NK92v, Donor 1213” value is 20%; the “ADCC Max Response, activated Tregs + NK92v, Donor 1730” value came out at 24%.

B7: TPP-18205 (004-F10_497A-M296-L12+497A-M326-O09-hIgG1Lambda), afucosylated (antibody, V domains shown)
VH: EVQLLESGGGLVQPGGSLRLSCAASGFTFSSYAMSWVRQAPGKGLEWVSGIRWNSGSKGYAGSVKGRFTISRDNSKNTLYLQMNSLRAEDTAVYYCVRSGNYYVGYHGMDVWGQGTLVTVSS
VL: QSVLTQPPSASGTPGQRVTISCSGGNSNIGTYFVSWYQQLPGTAPKLLIYTNNQRPSGVPDRFSGSKSGTSASLAISGLRSEDEADYYCETWDSNTRVFGGGTKLTVLG
modifications: afucosylated N-glycan at N297
Take B7: in test [7], the “ADCC EC50, activated Tregs + NK92v, Donor 1213” value was found to be 0.23 nM; the “ADCC EC50, activated Tregs + NK92v, Donor 1730” value amounted to 1.05 nM; the “ADCC Max Response, activated Tregs + NK92v, Donor 1213” value was determined as 52%; the “ADCC Max Response, activated Tregs + NK92v, Donor 1730” value came to 58%.

B8: TPP-21045 (17578-gl79-hIgG1-wt-Lambda), afucosylated (antibody, V domains shown)
VH: EVQLLESGGGLVQPGGSLRLSCAASGFTFSSAWMSWVRQAPGKGLEWVSGISWSGGSTGYALSVKGRFTISRDNSKNTLYLQMNSLRAEDTAVYYCARTYSGHYGPFFDYWGQGTLVTVSS
VL: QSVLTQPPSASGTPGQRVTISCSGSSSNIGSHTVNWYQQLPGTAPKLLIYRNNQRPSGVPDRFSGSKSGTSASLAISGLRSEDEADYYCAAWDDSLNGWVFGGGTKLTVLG
modifications: afucosylated (no fucose on the N-glycan at N297)
As for B8, in the test with human CCR8 [5], the “ADCP EC50 (pM); activated human Tregs donor 1163 + M2c donor 2” value was 52.9 pM and the “ADCP Max Response (%); activated human Tregs donor 1163 + M2c donor 2” value was 28%. Also, in the test with human CCR8 [1], the “ADCP EC50 (pM); activated human Tregs donor 1212 + M2c donor 3” value came out at 9.2 pM and the “ADCP Max Response (%); activated human Tregs donor 1212 + M2c donor 3” value was determined as 13%. In the test with human CCR8 [2], the “ADCP EC50 (pM); activated human Tregs donor 1212 + M2c macrophages” value was determined as 1220 pM and the “ADCP Max Response (%); activated human Tregs donor 1212 + M2c macrophages” value came out at 30%. Moreover, in the test with human CCR8 [6], the “ADCP EC50 (pM); activated human Tregs donor 1163 + M2c donor 1” value was determined as 30.1 pM and the “ADCP Max Response (%); activated human Tregs donor 1163 + M2c donor 1” value was 28%. In addition, in the test with human CCR8 [3], the “ADCP EC50 (pM); activated human Tregs donor 1212 + M2c donor 4” value turned out to be 17.1 pM and the “ADCP Max Response (%); activated human Tregs donor 1212 + M2c donor 4” value came out at 23%.

The values are drawn from patent US20240376218A1 (published 2024).
